20 sequences from a protein production outcome set (Wang et al. 2014) can be followed below.
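Note: failed if final PepcDB status was selected cloned or expressed and not failed if soluble or beyond.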

This data set can be described thus: label from the status in PepcDB records.
As to “AIAPSDLAKKKAAKKKEAAKARGRTRKPEDGVNGDAEKPEIQENGAAEVNGVDSLAKELDEFELKKTEARAVTGVLASHPNSTDVHISSLSLTFHGQELLSDTSLELNSGRRYGLIGLNGTGKSMLLSAISHREVPIPEHIDIYHLTREMAPSEKTALQCVMEVDEERIKLEKEAERLAHEDSECEKLMELYERLEELDADKASMRASRILHGLGFTTSMQQKKLKDFSGGWRMRVALARALFLKPFMLLLDEPTNHLDLDACVWLEEELSQFKRILVLISHSQDFLNGVCTNIIHLHQRKLKYYTGNYDQYVKTREELEENQMKRFNWEQDQIAHMKNYIARFGHGSAKLARQAQSKEKTLQKMVASGLTERVVNDKTLSFYFPPCGKIPPPVIMVQNVSFRYSENTPYIYKNLEFGIDLDTRVALVGPNGAGKSTLLKLLTGELLPSDGMIRKHSHVKIGRYHQHLTEQLELDLSPLEYMMKCYPEIKEKEEMKKIIGRYGLTGKQQVSPIRNLSDGQKCRVCFAWLAWQNPHMLFLDEPTNHLDIETIDALAEAINDFEGGMMLVSHDFRLIQQVAQEIWVCEKQTITKWSRDILAYKEHLKSKIDKQMHDL”, the protein production entry is on record as “failed”.

On to “AIATSALENYINRTVAVITSDGRMIVGTLKGFDQTINLILDESHERVFSSSQGVEQVVLGLYIVRGDNVAVIGEIDEETDSALDLGNIRAEPLNSVAH”, for which the protein production result is recorded as “not failed”.

For “AIDENKQKALAAALGQIEKQFGKGSIMRLGEDRSMDVETISTGSLSLDIALGAGGLPMGRIVELYGPESSGKTTLTLQVIAAAQREGKTCAFIDAEHALDPIYARKLGVDIDNLLCSQPDTGEQALEICDALARSGAVDVIVVDSVAALTPKAEIEGEIGDSHMGLAARMMSQAMRKLAGNLKQSNTLLIFINQIRMKIGVMFGNPETTTGGNALKFYASVRLDIRRIGAVKEGENVVGSETRVKVVKNKIAAPFKQAEFQILYGEGINFYGELVDLGVKEKLIEKAGAWYSYKGEKIGQGKANATAWLKDNPETAKEIEKKVRELLLSNPNSTPDFSVDDSEGVAETNEDF”, the protein production result is reported as “not failed”.

With “AKGSMIQFDAPDGKKANAYMVKASSPSTKYVFLIHEWWGLNDYIKKDADKLYADLGGNVNIMALDLYDGKVTANRDSAAAYMGAASATRIGSILNGAFMFAGDKAEIISMGWCFGGGWALQSSILAGNKSKGTIMYYGMTEKDPVKLAGLKGDVLGIFGSKDKWINPEMVAAFDKDLTAAGKKHTIKSFDADHAFANPSNPQFNKAYTEEAWGMSVAFIKKAFG”, the protein production entry was “failed”.

With “AKTWVLTNAEEGIDKGNWQINSDQLKVKDHAFSIEQKVLHGGKQEGSKILTIHSKDGLTITLSPTRGMNLLRIEGFGSRMGWDSPVKEVVNPAFINLESRNGLGWLEGFNEMMVRCGYEWTGHPVTADGQIYTLHGKAGNTPASLVEVEVADSAPYEIRIRGLVKESTFKKADLQTLTELRYVPGSNSFSLHDVLTNHADYPHDYQIIYHSNFGTPILEEGARFLAPISSISPFNDYAKSGLKTWQTYQGPTKDFDEMVFNIQPLADENHQTLAAVVNKAGDKGASIQFDTRQLPVLTLWKNTDTVKQGYVTGIEPGTSYAYPVTIERKQKRVKQLQPGASAQFDLTYTLLHDSAQVAAVEQKIAKIQGDNKVAENETPIAKE”, the protein production result is “not failed”.

Regarding “ALGVGRSGAMDQTALSQANRIVGNPDHAAVIEILNGGLKLKVLQSTVVAVTGAASHIGVSYAGQAQVKVPDYSPIALDCGDLLYIDSPHAGLRHYLAIRGGIKTEKILGSASFDTLAELGTPPLKPHDFIYSAELSVGSVLLHEKCAQQLPKIGDVVEVDVILGPRTDWFEPESLTQFFQQQWLVTQESNRIGLRLSAGLPLKRQIHGELASEGTCTGALQIPPNGQPVLFMNDHPLTGGYPVLGAIAIDHLDRVAQIPPGCLIQFRQKSEILDLDKEST”, the protein production result was “failed”.

As for “ALKQKIIGNGEKRVVTYAPTWREDDFISVGHYHFRWHFSLKKMMGLLPEDVMLLIRPHYLVTDRIDIKGFEDRVVIDSTTDMNEIYLITDLMVTDYSSVMFDFAILKRPMLFFAYDLEYYRDDLRGFYFDYYTELPGSIVTDETHLLAEIDQLLQNNFAELDPERFNKFAKRFVSWERGTAAQQVIEKINYRRDEK”, the protein production result was “failed”.

Take “ALSGSSGYKFGVLAKIVNYMKTRHQRGDTHPLTLDEILDETQHLDIGLKQKQWLMTEALVNNPKIEVIDGKYAFKPKYNVR”: the protein production entry is given as “not failed”.

On to “ALSSLNIIHIAAPHLEALNIATGETINFSSREDDHAILIYKLEPTTGMLRTRAYIGQHMPLYCSAMGKIYMAFGHPDYVKSYWENHQHEIQPLTRNTITELPAMFDELAHIRESGAAMDREENELGVSCIAVPVFDIHGRVPYAVSISLSTSRLKQVGEKNLLKPLRETAQAISNELGFTVRDDLGAIT”, for which the protein production entry is recorded as “not failed”.

As to “ALVNIVVTNRCDLSCFYCFFYAERAGYIYEPSIEQIKFMVRQVARQRQGSDVHVNIQITGGEPTVREDLVDVVKAIREAGAHYIQLNTNGINVARRYLDNPPGAIDYVRSLREAGVSVVYMSFDGVTPKVNWKNHYEAPFALKAFQEGGLDNVVLVPTVIRTINDHEVGDIIRFAGKHIDVVRGVNFQPVSLTGM”, the protein production result was “failed”.

With “ANLYWFRADWFERPDLKKKFKDKYGYELGVPVNWSAYEDIAKFFSEDVKEIDGKKVFGHMDYGKKDPSLGWRFTDAWFSMAGSGDKGLPNGLPVDEWGIRVEDCHPVGSSITRGGDTNGPAAVFATQKYIDWLKAYAPPEAAGMTFSESGPVPSQGNVAQQIFWYTAFTADMTKPGLPVMNADGTPKWRMAPSPKGPYWKEGMKLGYQDVGSWTFLKSSDEKKRLAAWLYAQFVTSKSVSLKKTIVGLTPIRESDINSK”, the protein production result is on record as “failed”.

Turning to “APAEIFNVVKYPAKLGDMYAYLTPPPANKKNKLPAVIWLNGGYGGIGGDDYFWTPQPVENDQTGATFRDPNMVLMIPSFRGENTNPGRYEMFYGELEDLDSAREYLASLPYVDPKRIYVVGHSTGGTRALLASEYSDKFRAIFSLGGIPDLKLRTEGRMMVELPFDKNNEEEFNVRSVYRYIKSIKTPTFYFEGHDYFWDEFNELRVVAMEHDIPLKIYNIKNGDHFNIIVPVSQLIKEKILQDTDTNKESNIRFTNEEIKWINKMVK”, the protein production entry is recorded as “failed”.

Regarding “AQKLSATSRILSSSRGPAPDDIADFFGTDRAAQHITLRRLRLGNGRPYAIDNGWYNSEFAPDLLENDVYNSVYSILDRVYGVPVTQAEQTVTAVAADEDTARLLDVTPGAPLLRILRQSLSGDKPVEWCVSLYRTDRYSLKTLVTRSEDL”, the protein production entry was “not failed”.

In the case of “AQTRLLIQNRLVAQRDEFDNVFHSIRDGVITYDTDFRIHFTNRSLLKMLHLPKDEAARPYEGLPAGSIFKIYNNGKEILRPMLKQVVTEESSVVIPENSFMQEVHSGSYFPVSGEVVPIRAHGKITGMALSARNIS”, the protein production entry is reported as “failed”.

For the sequence “ARGHRHTCKVMVLKEEAAGSERALALDMREGQRVFHSLIVHFENDIPVQIEDRFVNAQVAPDYLKQDFTLQTPYAYLSQVAPLTEGEHVVEAILAEADECKLLQIDAGEPCLLIRRRTWSGRQPVTAARLIHPGSRHRLEGRFTK”, the protein production entry is recorded as “not failed”.

Take “ARYLDVTSRRDPEHSHRTYYVTGQVFFASADRFTASFDLREKVETLAIDLREAHFWDITAVAALDKVVLKLRRAGISVDVVGMNRATATLVDRFGVHDKPDGIDSLMGH”: the protein production entry is on record as “failed”.

“ASLKDFELSKMLEKVAKESSVGTPRAINEDILDQGYTVEGNQLINHLSVRASHAERMRSNPDSVRSQLGDSVCSNTGYRQLLARGAILTYSFTEYKTNQPVATERFDAGSCRIQGKK”: the protein production entry was “not failed”.

“ASNSQLNAMAHQIQEMFPQVPYHLVLQDLQLTRSVEITTDNILEGRIQVPF”: the protein production result is “not failed”.

With “ASTVHEMGVFASLDDAVAAAKRAQQGLKSVAMRQLAIHAIREAGEKHARELAELAVSETGMGRVDDKFAKNVAQARGTPGVECLSPQVLTGDNGLTLIENAPWGVVASVTPSTNPAATVINNAISLIAAGNSVVFAPHPAAKKVSQRAITLLNQAVVAAGGPENLLVTVANPDIETAQRLFKYPGIGLLVVTGGEAVVDAARKHTNKRLIAAGAGNPPVVVDETADLPRAAQSIVKGASFDNN”, the protein production result is “failed”.

Take “ATEATNATNNQSTQVSQATSQPINFQVQKDGSSEKSHMDDYMQHPGKVIKQNNKYYFQTVLNNASFWKEYKFYNANNQELATTVVNDNKKADTRTINVAVEPGYKSLTTKVHIVVPQINYNHRYTTHLEFEKAIPTLADAAK”: the protein production result was “not failed”.
